Source: patent US20140050720A1, “ULTRALONG COMPLEMENTARITY DETERMINING REGIONS AND USES THEREOF” (THE SCRIPPS RESEARCH INSTITUTE, priority 2012, published 2014)

Assays:
Assay type in all cases: cell-based
[1] = biological target: T1, GLP-1 receptor (GLP-1R) (Homo sapiens, UniProt P43220); assay: GLP-1R activation, cAMP responsive luciferase reporter in HEK293 cells; details: HEK293 cells expressing GLP-1R, 24 h
T1 construct: expressed in transfected cells; host or cells: HEK293 cells expressing surface GLP-1R and a cAMP responsive luciferase reporter
T1 sequence (P43220 24-463, species assumed): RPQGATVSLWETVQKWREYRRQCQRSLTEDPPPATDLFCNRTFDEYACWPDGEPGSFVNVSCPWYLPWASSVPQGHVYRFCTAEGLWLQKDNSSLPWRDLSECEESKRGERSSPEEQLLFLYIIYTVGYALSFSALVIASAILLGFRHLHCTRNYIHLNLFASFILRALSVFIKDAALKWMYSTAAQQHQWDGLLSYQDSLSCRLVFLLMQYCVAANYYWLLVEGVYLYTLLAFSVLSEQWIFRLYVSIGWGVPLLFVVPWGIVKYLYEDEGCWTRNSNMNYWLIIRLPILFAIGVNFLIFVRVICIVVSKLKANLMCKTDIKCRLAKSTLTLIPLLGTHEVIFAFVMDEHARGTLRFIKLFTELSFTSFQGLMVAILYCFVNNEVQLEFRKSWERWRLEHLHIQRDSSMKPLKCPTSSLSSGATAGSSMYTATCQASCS
Experimental: HEK293 cells expressing surface GLP-1R and cAMP responsive luciferase reporter gene were seeded in 384 well plates at a density of 5000 cells per well. […] Subsequently, luciferase assay was performed using One-Glo luciferase reagent according manufacture's instruction (Promega).
HEK293 cells expressing surface GLP-1R and cAMP responsive luciferase reporter gene were seeded in 384 well plates at a density of 5000 cells per well. After 24 h incubation at 37° C. with 5% CO2, cells were treated with various concentrations of peptides and BLV1H12-GLP-1 clip fusion proteins and incubated for another 24 h. Subsequently, luciferase assay was performed using One-Glo luciferase reagent according manufacture's instruction (Promega).

[2] = test system: Human T cells; assay: Inhibition of T cells activation (secreted TNF-α ELISA); details: T cells activated by anti-CD3 and CD28 antibodies, 24 h
Experimental: Human PBMCs were isolated from fresh venous blood of healthy donors through ficoll gradient centrifugation, followed by resuspension in RPMI1640 medium with 10% FBS and plating in 96-well plates at a density of 1×10^6 cells/mL. Human T cells were purified from the isolated PBMCs using T cell enrichment kit. Purified PBMCs and T cells were pretreated for 1 h at 37° C. with 5% CO2 with various concentrations of purified BLV1H12-Moka1 fusion antibodies and then activated by anti-CD3 and CD28 antibodies. After 24 h treatment, supernatant was collected for measurement of the levels of secreted TNF-α using ELISA kit.
Human T cells were purified from the isolated PBMCs using T cell enrichment kit. Purified T cells were pretreated for 1 h at 37° C. with 5% CO2 with various concentrations of purified BLV1H12-VM24 fusion antibodies and then activated by anti-CD3 and CD28 antibodies. After 24 h treatment, supernatant was collected for measurement of the levels of secreted TNF-a using ELISA kit. FIGS. 18B-C and Table 15 show the BLV1H12-VM24 fusion antibodies inhibitory activities on T cells activation.

[3] = test system: TF-1 cells; assay: Proliferation assay on TF-1 cells (AlamarBlue); details: 72 h
Experimental: TF-1 cells were obtained from American Type Culture Collection (ATCC), VA, and cultured in RPMI-1640 medium supplemented with 10% fetal bovine serum (FBS), penicillin, streptomycin and 2 ng/mL granulocyte-macrophage colony-stimulating factor (GM-CSF). For proliferation assay, TF-1 cells were washed three times with RPMI-1640 medium and resuspended in RPMI-1640 medium with 10% FBS and penicillin and streptomycin at a density of 1.5×10^5 cells/ml. Cells were plated in 96-well plates and treated with varied concentrations of BLV1H12-hEPO fusion antibodies. After 72 h of incubation at 37° C. with 5% CO2, cells viabilities were measured using AlamarBlue (Invitrogen) assay following manufacture's instruction. FIG. 21 and Table 18 show the proliferative activity of Ab-hEPO fusion antibodies on TF1 cells.

Row | Substance | RLU (luciferase reporter) ([1]; 1.26953 nM) | RLU (luciferase reporter) ([1]; 2.53906 nM) | RLU (luciferase reporter) ([1]; 5.07813 nM) | RLU (luciferase reporter) ([1]; 10.15625 nM) | RLU (luciferase reporter) ([1]; 20.3125 nM) | RLU (luciferase reporter) ([1]; 40.625 nM) | RLU (luciferase reporter) ([1]; 81.25 nM) | RLU (luciferase reporter) ([1]; 162.5 nM) | RLU (luciferase reporter) ([1]; 325 nM) | RLU (luciferase reporter) ([1]; 650 nM) | F.I. (secreted TNF-α, ELISA) ([2]; 0.45725 nM) | F.I. (secreted TNF-α, ELISA) ([2]; 1.37174 nM) | F.I. (secreted TNF-α, ELISA) ([2]; 4.11523 nM) | F.I. (secreted TNF-α, ELISA) ([2]; 12.34568 nM) | F.I. (secreted TNF-α, ELISA) ([2]; 37.03704 nM) | F.I. (secreted TNF-α, ELISA) ([2]; 111.11111 nM) | F.I. (secreted TNF-α, ELISA) ([2]; 333.33333 nM) | F.I. (secreted TNF-α, ELISA) ([2]; 1000 nM) | also measured
1 | Ab-Ex4(RN): BLV1H12-Ex-4 fusion antibody treated with Factor Xa protease to release N-terminal of Ex-4 | 128740 | 153820 | 163020 | 169360 | 161380 | 154920 | 163700 | 163860 | 164160 | 155700 |  |  |  |  |  |  |  |  | RLU (luciferase reporter) ([1]; 0.00248 nM): 24120; RLU (luciferase reporter) ([1]; 0.00496 nM): 26320; RLU (luciferase reporter) ([1]; 0.00992 nM): 28140; RLU (luciferase reporter) ([1]; 0.01984 nM): 33500; RLU (luciferase reporter) ([1]; 0.03967 nM): 34180; RLU (luciferase reporter) ([1]; 0.07935 nM): 48860; RLU (luciferase reporter) ([1]; 0.31738 nM): 80740; RLU (luciferase reporter) ([1]; 0.63477 nM): 117240; RLU (luciferase reporter) ([1]; 1300 nM): 168740
2 | Ab-Ex4: Exendin-4 with Factor Xa cleavage site and GGGGS linkers grafted into BLV1H12 CDR3H; DNA SEQ ID NO: 8 | 6120 | 6360 | 8500 | 10420 | 19340 | 27960 | 54800 | 90660 | 117900 | 134760 |  |  |  |  |  |  |  |  | 
3 | Ab-VM24 L1: Vm24 in BLV1H12 CDR3H, linker=GGGGS; DNA SEQ ID NO: 13 |  |  |  |  |  |  |  |  |  |  | 3427.004 | 3265.969 | 3499.82 | 3627.431 | 3575.4815 | 3085.439 | 1853.645 | 990.818 | 
4 | Ab-VM24-L2: Vm24 in BLV1H12 CDR3H, first linker=GGGSGGGGS and second linker=GGGGSGGGS; DNA SEQ ID NO: 14 |  |  |  |  |  |  |  |  |  |  | 3156.626 | 3345.846 | 3518.316 | 3607.5755 | 3508.0475 | 3220.2475 | 2465.838 | 1306.0215 | 
5 | Ab-hEPO: human EPO with GGGGS linkers grafted into BLV1H12 CDR3H; DNA SEQ ID NO: 10 |  |  |  |  |  |  |  |  |  |  |  |  |  |  |  |  |  |  | F.I. (AlamarBlue, cell viability) ([3]; 0.00236 nM): 4198.65; F.I. (AlamarBlue, cell viability) ([3]; 0.01178 nM): 4757.196; F.I. (AlamarBlue, cell viability) ([3]; 0.05888 nM): 5265.069; F.I. (AlamarBlue, cell viability) ([3]; 0.2944 nM): 6430.723; F.I. (AlamarBlue, cell viability) ([3]; 1.472 nM): 8963.889; F.I. (AlamarBlue, cell viability) ([3]; 7.36 nM): 10330.18; F.I. (AlamarBlue, cell viability) ([3]; 36.8 nM): 10776.73; F.I. (AlamarBlue, cell viability) ([3]; 184 nM): 10330.44; F.I. (AlamarBlue, cell viability) ([3]; 4.71E−04 nM): 4324.037; F.I. (AlamarBlue, cell viability) ([3]; 9.42E−05 nM): 4361.92
